Measured values reported in US20240228562A1 (Pieris, published 2024).

T1: recombinant rat CTGF protein (R&D Systems) (rat, UniProt Q9R1E9 25-347)
T1 construct: Bought; also called rCTGF
T1 sequence: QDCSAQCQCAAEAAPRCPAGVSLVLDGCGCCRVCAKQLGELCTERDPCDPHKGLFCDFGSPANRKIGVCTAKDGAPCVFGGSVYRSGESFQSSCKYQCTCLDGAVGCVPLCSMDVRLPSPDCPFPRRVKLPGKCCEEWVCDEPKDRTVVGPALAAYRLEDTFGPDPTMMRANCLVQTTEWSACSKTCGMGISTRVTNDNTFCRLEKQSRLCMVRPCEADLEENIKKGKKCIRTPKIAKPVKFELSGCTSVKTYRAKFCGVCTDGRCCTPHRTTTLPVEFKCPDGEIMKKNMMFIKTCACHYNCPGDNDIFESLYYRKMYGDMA

T2: recombinant human CTGF protein (R&D Systems, SEQ ID NO: 79) (human, UniProt P29279 27-349)
T2 construct: Bought; also called human CTGF/CNN2; huCTGF
T2 sequence: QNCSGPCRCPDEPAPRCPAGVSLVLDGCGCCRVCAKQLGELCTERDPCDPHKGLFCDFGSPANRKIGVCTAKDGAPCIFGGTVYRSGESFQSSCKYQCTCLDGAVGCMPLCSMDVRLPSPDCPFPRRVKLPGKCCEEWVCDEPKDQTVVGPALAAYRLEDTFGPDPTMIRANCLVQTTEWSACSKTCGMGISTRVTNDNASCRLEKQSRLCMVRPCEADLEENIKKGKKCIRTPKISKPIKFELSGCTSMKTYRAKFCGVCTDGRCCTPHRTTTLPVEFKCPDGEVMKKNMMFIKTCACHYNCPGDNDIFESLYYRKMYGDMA

T3: huWISP-2 (human, UniProt O76076 24-250, limits assumed)
T3 construct: also called human WISP-2 (CCN5)
T3 sequence (looked up): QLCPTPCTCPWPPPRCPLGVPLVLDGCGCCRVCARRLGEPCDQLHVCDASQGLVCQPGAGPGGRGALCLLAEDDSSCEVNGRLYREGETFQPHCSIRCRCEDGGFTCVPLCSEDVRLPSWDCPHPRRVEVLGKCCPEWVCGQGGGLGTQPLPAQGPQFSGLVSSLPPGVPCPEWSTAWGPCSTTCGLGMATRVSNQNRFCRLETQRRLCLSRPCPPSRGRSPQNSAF

T4: huCYR61 (human, UniProt O00622 25-381, limits assumed)
T4 construct: also called human CYR61 (CCN1)
T4 sequence (looked up): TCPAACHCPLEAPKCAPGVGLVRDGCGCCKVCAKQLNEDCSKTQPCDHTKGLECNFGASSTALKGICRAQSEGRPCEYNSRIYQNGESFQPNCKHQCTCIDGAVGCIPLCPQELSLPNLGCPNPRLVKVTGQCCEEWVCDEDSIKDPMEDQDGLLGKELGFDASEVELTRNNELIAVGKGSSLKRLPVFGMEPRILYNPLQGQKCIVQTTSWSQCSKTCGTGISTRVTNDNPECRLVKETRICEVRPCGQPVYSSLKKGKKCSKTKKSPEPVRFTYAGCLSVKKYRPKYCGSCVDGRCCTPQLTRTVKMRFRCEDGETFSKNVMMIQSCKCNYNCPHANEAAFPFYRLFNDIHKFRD

B1: lipocalin mutein of SEQ ID NO: 3 (designed binder)
chain: QDSTSDLIPAPPLSKVPLQQNFQDNQFHGKWYVVGRAGNNRLREDKDPPKMWATIYELKEDKSYNVTHVHFMTKKCRYIIDTFVPGSQPGEFTLGAIKSGPGMTSPLVRIVSTNYNQHAMVFFKWVNQNREWFTITLYGRTKELTSELKENFIRFSKSLGLPENHIVFPVPIDQCIDGSAWSHPQFEK
notes: Parent hNGAL mutein; also called hNGAL mutein
B2: lipocalin mutein of SEQ ID NO: 25 (designed binder)
chain: QDSTSDLIPAPPLSKVPLQQNFQDNQFHGKWYVVGMAGNFRLREDKDPSKMGATIYELKEDKSYNVTQVQFDDKKCLYVIETFVPGSQPGEFTLGAIKSFPGFTSQLVRVVSTNYNQHAMVFFKKVYQNREVFWITLYGRTKELTSELKENFIRFSKSLGLPENHIVFPVPIDQCIDGSAWSHPQFEK
notes: as for B1
B3: lipocalin mutein of SEQ ID NO: 29 (designed binder)
chain: QDSTSDLIPAPPLSKVPLQQNFQDNQFHGKWYVVGWAGNIKLREDKDPFKMSATIYELKEDKSYNVTEVVFEQKKCHYIIKTFVPGSQPGEFTLGDIKSPPGETSSLVRVVSTNYNQHAMVFFKKVFQNREFFWITLYGRTKELTSELKENFIRFSKSLGLPENHIVFPVPIDQCIDGSAWSHPQFEK
notes: as for B1
B4: lipocalin mutein of SEQ ID NO: 7 (designed binder)
chain: QDSTSDLIPAPPLSKVPLQQNFQDNQFHGKWYVVGLAGNYGLRTDKRPSKMFATIYELKEDKSYDVTSVRFEQERCHYTIRTFVPGSQPGEFTTGSIKSRPGQTSSLVRVVSTNYNQHAMVFFKSVIQNREYFAITLYGRTKELTSELKENFIRFSKSLGLPENHIVFPVPIDQCIDGSAWSHPQFEK
notes: as for B1
B5: lipocalin mutein of SEQ ID NO: 9 (designed binder)
chain: QDSTSDLIPAPPLSKVPLQQNFQDNQFHGKWYVVGLAGNKILRIDKQPAKMFATIYELKEDKSYDVTSVRFEARSCSYTIKTFVPGSQPGEFTAGNIKSAPGQTSTLVRVVSTNYNQHAMVFFKHVSQNRETFVITLYGRTKELTSELKENFIRFSKSLGLPENHIVFPVPIDQCIDGSAWSHPQFEK
notes: as for B1
B6: lipocalin mutein of SEQ ID NO: 15 (designed binder)
chain: QDSTSDLIPAPPLSKVPLQQNFQDNQFQGKWYVVGLAGNAILREDKQPAKMFATIYELKEDKSYDVTSVRFEAKSCKYTIKTFVPGSQPGEFTAGYIKSAPGQTSTLVRVVSTNYNQHAMVFFKHVTQNREIFVITLYGRTKELTSELKENFIRFSKSLGLPENHIVFPVPIDQCIDG
notes: also called hNGAL mutein; not shown: C-terminal His-tag

Target: T5, muCTGF domains 1 and 2 with human Fc tag (murine)
T5 construct: Made by Evitria; also called Murine CTGF1-2-huFc
T5 sequence (chain, as listed by the source limits assumed): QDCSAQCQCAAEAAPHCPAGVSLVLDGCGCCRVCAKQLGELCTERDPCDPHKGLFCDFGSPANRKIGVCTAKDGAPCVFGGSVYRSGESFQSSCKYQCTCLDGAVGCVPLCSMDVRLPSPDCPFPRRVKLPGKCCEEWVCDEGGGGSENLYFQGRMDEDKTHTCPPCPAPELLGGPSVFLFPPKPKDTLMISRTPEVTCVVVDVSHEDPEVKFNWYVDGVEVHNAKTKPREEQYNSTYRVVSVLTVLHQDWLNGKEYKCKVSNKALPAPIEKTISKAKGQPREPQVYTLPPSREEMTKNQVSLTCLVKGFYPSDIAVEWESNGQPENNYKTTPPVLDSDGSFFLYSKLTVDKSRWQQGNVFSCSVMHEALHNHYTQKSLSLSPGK
Assay: ELISA, coated target

Row | Binder | binding result | EC50 [nM]
1 | B1 | no binding (tested: dilutions starting at 1000 nM) | 
2 | B2 |  | 14
3 | B3 |  | 17
4 | B4 |  | 14
5 | B5 |  | 5.8

Target: T1, recombinant rat CTGF protein (R&D …)
Assay: ELISA, coated target

Row | Binder | EC50 [nM]
6 | B2 | 23
7 | B3 | 20
8 | B4 | 41
9 | B5 | 30

Target: T2, recombinant human CTGF protein (R&D …)
Assay: ELISA, coated target

Row | Binder | EC50 [nM]
10 | B1 | 6.9
11 | B2 | 11
12 | B3 | 11
13 | B4 | 34
14 | B5 | 14

Target: T6, murine CTGF (Biozol, SEQ ID NO: 80) (murine)
T6 construct: Bought; also called muCTGF
Assay: ELISA, coated target

Row | Binder | binding result | EC50 [nM]
15 | B2 | no binding (tested: dilutions starting at 1000 nM) | 
16 | B3 | no binding (tested: dilutions starting at 1000 nM) | 
17 | B4 |  | 29
18 | B5 |  | 11

Target: T7, huCTGF domains 1 and 2 with human Fc tag (human)
T7 construct: Made by Evitria; also called Human CTGF1-2-huFc
Assay: ELISA, coated target

Row | Binder | binding result | EC50 [nM]
19 | B1 | no binding (tested: dilutions starting at 1000 nM) | 
20 | B2 |  | 8.8
21 | B3 |  | 8.4
22 | B4 |  | 17
23 | B5 |  | 8

Target: T3, huWISP-2
Assay: ELISA, coated CCN protein
Method in brief: (§1)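 Plates coated with each CCN protein at 1 μg/ml overnight at 4 °C, blocked with PBS-T/BSA, then serially diluted muteins from 1000 nM bound 1 h at RT. Detection with HRP anti-NGAL or anti-Strep-Tag and fluorogenic substrate; cross-reactivity judged when the CTGF signal neared saturation.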

Row | Binder | binding result
24 | B1 | no binding (tested: dilutions starting at 1000 nM)
25 | B6 | no binding (tested: dilutions starting at 1000 nM)
26 | B2 | no binding (tested: dilutions starting at 1000 nM)
27 | B3 | no binding (tested: dilutions starting at 1000 nM)
28 | B4 | no binding (tested: dilutions starting at 1000 nM)
29 | B5 | no binding (tested: dilutions starting at 1000 nM)

Target: T4, huCYR61
Assay: ELISA, coated CCN protein
Method in brief: as §1

Row | Binder | binding result
30 | B1 | no binding (tested: dilutions starting at 1000 nM)
31 | B6 | no binding (tested: dilutions starting at 1000 nM)
32 | B2 | no binding (tested: dilutions starting at 1000 nM)
33 | B3 | no binding (tested: dilutions starting at 1000 nM)
34 | B4 | no binding (tested: dilutions starting at 1000 nM)
35 | B5 | no binding (tested: dilutions starting at 1000 nM)
